# Experimental data from the Human Domainome abundance scans (Beltran et al. 2025).
# ± gives the uncertainty stated by the source.
# B1: Androgen receptor, residues 557 to 632; numbered along this chain, P10275 (parent)
# chain: QKTCLICGDEASGCHYGALTCGSCKVFFKRAAEGKQKYLCASRNDCTIDKFRRKNCPSCRLRKCYEAGMTLGARKL
# Variants of: B1
# Experiment: abundance fitness (aPCA) (normalised: wild type 0, dead -1); higher = more abundant; growth selection in yeast, the domain comes from the species named
# Settings: Homo sapiens
row,Variant,abundance fitness
1,QKTCLICGDEASGCHYGALTCGSCKVFFKRAAEGKQKYLCASRNDCTIIKFRRKNCPSCRLRKCYEAGMTLGARKL [D49I],-0.283 ± 0.22
2,QKTCLICGDEASGCHYGALTCGSCKDFFKRAAEGKQKYLCASRNDCTIDKFRRKNCPSCRLRKCYEAGMTLGARKL [V26D],0.043 ± 0.077
3,QKTCLICGDEASGCHYGALTCGSCKNFFKRAAEGKQKYLCASRNDCTIDKFRRKNCPSCRLRKCYEAGMTLGARKL [V26N],0.069 ± 0.05
4,GKTCLICGDEASGCHYGALTCGSCKVFFKRAAEGKQKYLCASRNDCTIDKFRRKNCPSCRLRKCYEAGMTLGARKL [Q1G],0.048 ± 0.066
5,QKTCLICGDEASGCHYGALTCGSCKVFFKRAAEGKQKYLCASRNDCTIDKFRRKNHPSCRLRKCYEAGMTLGARKL [C56H],-0.804 ± 0.28
6,QKTCLICGDEASGCHYGALTCGSCKVFFKRAAEGKQKDLCASRNDCTIDKFRRKNCPSCRLRKCYEAGMTLGARKL [Y38D],-0.059 ± 0.094
7,QKTCLICGDEASGCHYGALTCGSCKVFFKRAAEGKQKCLCASRNDCTIDKFRRKNCPSCRLRKCYEAGMTLGARKL [Y38C],-0.305 ± 0.11
8,QKTCLICGDEASGCHYGLLTCGSCKVFFKRAAEGKQKYLCASRNDCTIDKFRRKNCPSCRLRKCYEAGMTLGARKL [A18L],-0.155 ± 0.034
9,QKTCLICGDEASGCHYGALTCGSCKVFFHRAAEGKQKYLCASRNDCTIDKFRRKNCPSCRLRKCYEAGMTLGARKL [K29H],-0.024 ± 0.1
10,QKTCLICGDEASGCHYGALTCGSCKVFFKRAFEGKQKYLCASRNDCTIDKFRRKNCPSCRLRKCYEAGMTLGARKL [A32F],-0.197 ± 0.065
11,QKTCLICGDEASGCHYGALTCGSCKVFFKRAHEGKQKYLCASRNDCTIDKFRRKNCPSCRLRKCYEAGMTLGARKL [A32H],-0.233 ± 0.093
12,QKTCLICGDEASGCHYGALTCGSCKVFFKRAAEGCQKYLCASRNDCTIDKFRRKNCPSCRLRKCYEAGMTLGARKL [K35C],-0.007 ± 0.07
13,QKTCLICGDEASGCHYGALTCGSCKVFFKRAAEGKQKYLCASRNDCTIDKFRRKNCPPCRLRKCYEAGMTLGARKL [S58P],0.013 ± 0.062
14,QKTCLICGDEASGCHYGALTCGSCKVFFKRAAEGKQKYLCASRNDCTIDKFRRKNCPSCRLRKCYEAGMTVGARKL [L71V],-0.085 ± 0.064
15,QKTCLICGDEASGCHYGALTCGSCKVFFKSAAEGKQKYLCASRNDCTIDKFRRKNCPSCRLRKCYEAGMTLGARKL [R30S],-0.016 ± 0.049
16,QKTCTICGDEASGCHYGALTCGSCKVFFKRAAEGKQKYLCASRNDCTIDKFRRKNCPSCRLRKCYEAGMTLGARKL [L5T],-0.01 ± 0.05
17,QKTCNICGDEASGCHYGALTCGSCKVFFKRAAEGKQKYLCASRNDCTIDKFRRKNCPSCRLRKCYEAGMTLGARKL [L5N],-0.058 ± 0.048
18,QKTCLICGDEASGCHYGALTCASCKVFFKRAAEGKQKYLCASRNDCTIDKFRRKNCPSCRLRKCYEAGMTLGARKL [G22A],-0.025 ± 0.056

row,Variant,abundance fitness
1,QKTCLICGDEASGCHYGARTCGSCKVFFKRAAEGKQKYLCASRNDCTIDKFRRKNCPSCRLRKCYEAGMTLGARKL [L19R],-0.006 ± 0.044
2,QKTCLICGDEASGCHYGAKTCGSCKVFFKRAAEGKQKYLCASRNDCTIDKFRRKNCPSCRLRKCYEAGMTLGARKL [L19K],-0.015 ± 0.043
3,QKTCLICGDEASGCHYGALTCGSCKVFFKRAAEGKQKYLCASRNDCTIDKFTRKNCPSCRLRKCYEAGMTLGARKL [R52T],0.067 ± 0.082
4,QKTCLICLDEASGCHYGALTCGSCKVFFKRAAEGKQKYLCASRNDCTIDKFRRKNCPSCRLRKCYEAGMTLGARKL [G8L],-0.146 ± 0.06
5,QKTCLICCDEASGCHYGALTCGSCKVFFKRAAEGKQKYLCASRNDCTIDKFRRKNCPSCRLRKCYEAGMTLGARKL [G8C],-0.319 ± 0.14
6,QKTCLICGDEAAGCHYGALTCGSCKVFFKRAAEGKQKYLCASRNDCTIDKFRRKNCPSCRLRKCYEAGMTLGARKL [S12A],-0.046 ± 0.059
7,QKTCLICGDEASGCHYMALTCGSCKVFFKRAAEGKQKYLCASRNDCTIDKFRRKNCPSCRLRKCYEAGMTLGARKL [G17M],-0.229 ± 0.057
8,QKTCLICGDEASGCHYGALTYGSCKVFFKRAAEGKQKYLCASRNDCTIDKFRRKNCPSCRLRKCYEAGMTLGARKL [C21Y],-0.849 ± 0.2
9,QKTRLICGDEASGCHYGALTCGSCKVFFKRAAEGKQKYLCASRNDCTIDKFRRKNCPSCRLRKCYEAGMTLGARKL [C4R],-0.114 ± 0.074
10,QKTCLICGDEASGCHYGALTCGSCKVFFKRAAEGKQKYLCASRNDCTIDKFRRKNCPSCRLRLCYEAGMTLGARKL [K63L],-0.111 ± 0.061
11,QKTCLICGDEASGCHYGALTCGSCKVFFKRAAEGKQKYLCASRNDCTIDKFRRKNCPSCRLRKCYEAGMTLGKRKL [A73K],-0.2 ± 0.12
12,QKTCLICGDEASGCHYGALTCGSCKVFFKRAAEGKQKYLCASRNDCTIDKFRRKNCHSCRLRKCYEAGMTLGARKL [P57H],0.02 ± 0.07
13,QKTCLICGDEASGCHYGALTCGSCKVFFKRAAEGKQKYLCASRNDCTIDKFRRKNCESCRLRKCYEAGMTLGARKL [P57E],0.044 ± 0.11
14,QKTCLICGDEASGCHYGALTCGSCKVFFKRAAEGKQKYLCASRNDCTIDKFRRKNCVSCRLRKCYEAGMTLGARKL [P57V],-0.037 ± 0.072
15,QKTCLICGDEASGCHYGALTCGSCKVFFKRIAEGKQKYLCASRNDCTIDKFRRKNCPSCRLRKCYEAGMTLGARKL [A31I],-0.387 ± 0.17
16,QKTCLICGDEASGCHYGALTCGSCKVFFKRSAEGKQKYLCASRNDCTIDKFRRKNCPSCRLRKCYEAGMTLGARKL [A31S],-0.024 ± 0.059
17,QKTCLICGDEASGCHYGALTCGSQKVFFKRAAEGKQKYLCASRNDCTIDKFRRKNCPSCRLRKCYEAGMTLGARKL [C24Q],-0.932 ± 0.086
18,QKTCLICGDEASGCHYGALTCGSYKVFFKRAAEGKQKYLCASRNDCTIDKFRRKNCPSCRLRKCYEAGMTLGARKL [C24Y],-1.08 ± 0.15
